Assays:
H1299 cells = experiment: MTT cell viability, H1299; assay type: cell-based, human; details: AChE-ID media, 48 h, H1299; Fig. 7B
Protocol: Human NSCLC cell lines, A549 (ATCC CCL‐185) and H1299 (ATCC CRL‐5803), were purchased from the American Type Culture Collection (ATCC, Manassas, VA, USA). Cells were seeded as we reported earlier in 5 mL HyClone Dulbecco's modified Eagle's medium/nutrient mixture F‐12 (DMEM/F12) (GE Healthcare Life Sciences, Pittsburgh, PA, USA), supplemented with 10% Fetalgro bovine growth serum (FBS; RMBIO, Missoula, MT, USA), 50 U·mL^−1 penicillin, and […] streptomycin (Invitrogen, Life Technologies, Carlsbad, CA, USA) in 25‐cm^2 tissue culture flasks, and allowed to grow overnight in an incubator at 37 °C, 95% humidity, and 5% CO2. The cells were counted after trypan blue staining, with a hemocytometer.
The 3‐(4,5‐dimethylthiazol‐2‐yl)‐2,5‐diphenyl‐tetrazolium bromide (MTT) reduction assay (Sigma‐Aldrich), used to measure cell viability, was carried out as we reported earlier. […] The absorbance was measured at 570 nm in a plate reader. […]
Conditioned media were immunodepleted (ID) according to the methods previously described and our recently published report. […] The ID media were then carefully removed and analyzed for the presence of the target protein or peptide by ELISA. The same amount of protein (3 µL of 600 µg·mL^−1 total protein) of each sample was analyzed in the experiments. […]

Aβ40 = details: HN and AChE compared; cited from earlier work
Text: Amino acid residues involved in direct interactions between HN and Aβ40 were identified previously by molecular modeling. The specific epitopes at the binding interface between HN and Aβ40 were identified, by proteolytic epitope excision and extraction in addition to affinity–mass spectrometric data analysis, to be HN (5–15) and Aβ (17–28). […] Inhibiting the 17–28 region of Aβ reduced aggregation of the neurotoxic amyloid fibrils and related cytotoxicity in SH‐SY5Y, a human neuroblastoma cell ... || Humanin has been previously reported to bind amino acid residues 17–28 of Aβ (Fig. 1). AChE is also known to bind Aβ (1–16) and the Aβ (12–28) region (Fig. 1). Since the binding sites of AChE and HN on Aβ are overlapping, we previously investigated whether HN and AChE can simultaneously bind Aβ [79].

B1: acetylcholinesterase (protein)
chain: EGREDAELLVTVRGGRLRGIRLKTPGGPVSAFLGIPFAEPPMGPRRFLPPEPKQPWSGVVDATTFQSVCYQYVDTLYPGFEGTEMWNPNRELSEDCLYLNVWTPYPRPTSPTPVLVWIYGGGFYSGASSLDVYDGRFLVQAERTVLVSMNYRVGAFGFLALPGSREAPGNVGLLDQRLALQWVQENVAAFGGDPTSVTLFGESAGAASVGMHLLSPPSRGLFHRAVLQSGAPNGPWATVGMGEARRRATQLAHLVGCPPGGTGGNDTELVACLRTRPAQVLVNHEWHVLPQESVFRFSFVPVVDGDFLSDTPEALINAGDFHGLQVLVGVVKDEGSYFLVYGAPGFSKDNESLISRAEFLAGVRVGVPQVSDLAAEAVVLHYTDWLHPEDPARLREALSDVVGDHNVVCPVAQLAGRLAAQGARVYAYVFEHRASTLSWPLWMGVPHGYEIEFIFGIPLDPSRNYTAEEKIFAQRLMRYWANFARTGDPNEPRDPKAPQWPPYTAGAQQYVSLDLRPLEVRRGLRAQACAFWNRFLPKLLSATDTLDEAERQWKAEFHRWSSYMVHWKNQFDHYSKQDRCSDL
effect of AChE immunodepletion on cell viability (H1299 cells): no effect
affinity for Aβ40 (Aβ40): comparable affinities

Reference: PMC7714071, “Interaction of amyloid beta with humanin and acetylcholinesterase is modulated by ATP” (FEBS Open Bio, 2020)
